Assays:
human Aβ (1-40) peptide = biological target: T1, human Aβ (1-40) peptide (human); assay: SPR, immobilized fibers;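 also: biacore SPR using in vitro grown Aβ1-40 or Aβ1-42 fibrils immobilized on the chip with Fab analytes, KD from koff/kon fits or equilibrium isotherms based on total Fab concentration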
T1 construct: also called Aβ1-40 fibers

Aβ (1-42) peptide = biological target: T2, Aβ (1-42) peptide (human); assay: SPR, immobilized fibers;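 also: biacore SPR using in vitro grown Aβ1-40 or Aβ1-42 fibrils immobilized on the chip with Fab analytes, KD from koff/kon fits or equilibrium isotherms based on total Fab concentration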
T2 construct: also called Aβ1-42 fibers; Aβ4

Row | Binder | Kd (human Aβ (1-40) peptide) [nM] | Kd (Aβ (1-42) peptide) [nM]
1 | MS-Roche #7.2.H6 Fab (Fab, V domains shown) VH: QVQLVESGGGLVQPGGSLRLSCAASGFTFSSYAMSWVRQAPGKGLEWVSAINARGNRTYYADSVKGRFTISRDNSKNTLYLQMNSLRAEDTAVYYCARGKGNTHKPYGYVRYFDVWGQGTLVTVSS VL: DIVLTQSPATLSLSPGERATLSCRASQSVSSSYLAWYQQKPGQAPRLLIYGASSRATGVPARFSGSGSGTDFTLTISSLEPEDFATYYCQQIYSFPHTFGQGTKVEIKR | 1 | –
2 | MS-Roche #7.9.H7 Fab (Fab, V domains shown, also called MSR 7.9H7) VH: QVQLVESGGGLVQPGGSLRLSCAASGFTFSSYAMSWVRQAPGKGLEWVSAINASGTRTYYADSVKGRFTISRDNSKNTLYLQMNSLRAEDTAVYYCARGKGNTHKPYGYVRYFDVWGQGTLVTVSS VL: DIVLTQSPATLSLSPGERATLSCRASQSVSSSYLAWYQQKPGQAPRLLIYGASSRATGVPARFSGSGSGTDFTLTISSLEPEDFATYYCLQIYNMPITFGQGTKVEIKR | 1 | 0.9
3 | MS-Roche #7.3.H1 Fab (Fab, V domains shown) VH: QVQLVESGGGLVQPGGSLRLSCAASGFTFSSYAMSWVRQAPGKGLEWVSAISAISNKTYYADSVKGRFTISRDNSKNTLYLQMNSLRAEDTAVYYCARGKGNTHKPYGYVRYFDVWGQGTLVTVSS VL: not shown | 8 | 11.2
4 | MS-Roche #7.3.L1 Fab (Fab, V domains shown) VH: not shown VL: DIVLTQSPATLSLSPGERATLSCRASQYLHYGYLAWYQQKPGQAPRLLIYGASSRATGVPARFSGSGSGTDFTLTISSLEPEDFAVYYCHQVYSHPFTFGQGTKVEIKR | 4.5 | 6
5 | MS-Roche #7.2.L2 Fab (Fab, V domains shown) VH: not shown VL: DIVLTQSPATLSLSPGERATLSCRASQYISFRYLAWYQQKPGQAPRLLIYGASSRATGVPARFSGSGSGTDFTLTISSLEPEDFATYYCQQIYSFPHTFGQGTKVEIKR | 5.6 | 4
6 | MS-Roche #7.9.H5 Fab (Fab, V domains shown, assembled) VH: QVQLVESGGGLVQPGGSLRLSCAASGFTFSSYAMSWVRQAPGKGLEWVSAINHAGNKKYYADSVKGRFTISRDNSKNTLYLQMNSLRAEDTAVYYCARGKGNTHKPYGYVRYFDVWGQGTLVTVSS VL: DIVLTQSPATLSLSPGERATLSCRASQSVSSSYLAWYQQKPGQAPRLLIYGASSRATGVPARFSGSGSGTDFTLTISSLEPEDFATYYCLQIYNMPITFGQGTKVEIKR | 1.7 | 1.8
7 | MS-Roche #7.2.H8 Fab (Fab, V domains shown) VH: QVQLVESGGGLVQPGGSLRLSCAASGFTFSSYAMSWVRQAPGKGLEWVSAINASGHKTYYADSVKGRFTISRDNSKNTLYLQMNSLRAEDTAVYYCARGKGNTHKPYGYVRYFDVWGQGTLVTVSS VL: DIVLTQSPATLSLSPGERATLSCRASQSVSSSYLAWYQQKPGQAPRLLIYGASSRATGVPARFSGSGSGTDFTLTISSLEPEDFATYYCQQIYSFPHTFGQGTKVEIKR | 1.5 | 2.1
8 | MS-Roche #7.2.L4 Fab (Fab, V domains shown) VH: not shown VL: DIVLTQSPATLSLSPGERATLSCRASQFIRRSYLAWYQQKPGQAPRLLIYGASSRATGVPARFSGSGSGTDFTLTISSLEPEDFATYYCQQIYSFPHTFGQGTKVEIKR | 1.1 | 1.1
9 | MS-Roche #7.2.H7 Fab (Fab, V domains shown) VH: QVQLVESGGGLVQPGGSLRLSCAASGFTFSSYAMSWVRQAPGKGLEWVSAINSRGSDTHYADSVKGRFTISRDNSKNTLYLQMNSLRAEDTAVYYCARGKGNTHKPYGYVRYFDVWGQGTLVTVSS VL: DIVLTQSPATLSLSPGERATLSCRASQSVSSSYLAWYQQKPGQAPRLLIYGASSRATGVPARFSGSGSGTDFTLTISSLEPEDFATYYCQQIYSFPHTFGQGTKVEIKR | 15.5 | 8.1

Next, values leading:

Row | Kd (human Aβ (1-40) peptide) [nM] | Kd (Aβ (1-42) peptide) [nM] | Binder
10 | 6.6 | 4.4 | MS-Roche #7.11.H3 Fab (Fab, V domains shown) VH: QVQLVESGGGLVQPGGSLRLSCAASGFTFSSYAMSWVRQAPGKGLEWVSGINANGNRTYYADSVKGRFTISRDNSKNTLYLQMNSLRAEDTAVYYCARGKGNTHKPYGYVRYFDVWGQGTLVTVSS VL: DIVLTQSPATLSLSPGERATLSCRASQSVSSSYLAWYQQKPGQAPRLLIYGASSRATGVPARFSGSGSGTDFTLTISSLEPEDFATYYCQQVYSPPHTFGQGTKVEIKR
11 | 0.8 | 0.7 | MS-Roche #7.9.H8 Fab (Fab, V domains shown, assembled) VH: QVQLVESGGGLVQPGGSLRLSCAASGFTFSSYAMSWVRQAPGKGLEWVSAINASGSKIYYADSVKGRFTISRDNSKNTLYLQMNSLRAEDTAVYYCARGKGNTHKPYGYVRYFDVWGQGTLVTVSS VL: DIVLTQSPATLSLSPGERATLSCRASQSVSSSYLAWYQQKPGQAPRLLIYGASSRATGVPARFSGSGSGTDFTLTISSLEPEDFATYYCLQIYNMPITFGQGTKVEIKR
12 | 1 | 0.5 | MS-Roche #7.9.L2 Fab (Fab, V domains shown) VH: not shown VL: DIVLTQSPATLSLSPGERATLSCRASQYLHKRYLAWYQQKPGQAPRLLIYGASSRATGVPARFSGSGSGTDFTLTISSLEPEDFATYYCLQIYNMPITFGQGTKVEIKR
13 | 0.9 | 0.9 | MS-Roche #7.9.H9 Fab (Fab, V domains shown, assembled) VH: QVQLVESGGGLVQPGGSLRLSCAASGFTFSSYAMSWVRQAPGKGLEWVSAINGKGNKKYYADSVKGRFTISRDNSKNTLYLQMNSLRAEDTAVYYCARGKGNTHKPYGYVRYFDVWGQGTLVTVSS VL: DIVLTQSPATLSLSPGERATLSCRASQSVSSSYLAWYQQKPGQAPRLLIYGASSRATGVPARFSGSGSGTDFTLTISSLEPEDFATYYCLQIYNMPITFGQGTKVEIKR
14 | 1 | 1.7 | MS-Roche #7.11.H4 Fab (Fab, V domains shown) VH: QVQLVESGGGLVQPGGSLRLSCAASGFTFSSYAMSWVRQAPGKGLEWVSAINANGYKTYYADSVKGRFTISRDNSKNTLYLQMNSLRAEDTAVYYCARGKGNTHKPYGYVRYFDVWGQGTLVTVSS VL: DIVLTQSPATLSLSPGERATLSCRASQSVSSSYLAWYQQKPGQAPRLLIYGASSRATGVPARFSGSGSGTDFTLTISSLEPEDFATYYCQQVYSPPHTFGQGTKVEIKR
15 | 3.4 | 1.7 | MS-Roche #7.11.H5 Fab (Fab, V domains shown) VH: QVQLVESGGGLVQPGGSLRLSCAASGFTFSSYAMSWVRQAPGKGLEWVSAINAHGQRTYYADSVKGRFTISRDNSKNTLYLQMNSLRAEDTAVYYCARGKGNTHKPYGYVRYFDVWGQGTLVTVSS VL: DIVLTQSPATLSLSPGERATLSCRASQSVSSSYLAWYQQKPGQAPRLLIYGASSRATGVPARFSGSGSGTDFTLTISSLEPEDFATYYCQQVYSPPHTFGQGTKVEIKR
16 | 1.1 | 1.2 | MS-Roche #7.11.L1 Fab (Fab, V domains shown) VH: not shown VL: DIVLTQSPATLSLSPGERATLSCRASQRILRIYLAWYQQKPGQAPRLLIYGASSRATGVPARFSGSGSGTDFTLTISSLEPEDFATYYCQQVYSPPHTFGQGTKVEIKR
17 | 1 | 1.1 | MS-Roche #7.9.L1 Fab (Fab, V domains shown) VH: not shown VL: DIVLTQSPATLSLSPGERATLSCRASQRLSPRYLAWYQQKPGQAPRLLIYGASSRATGVPARFSGSGSGTDFTLTISSLEPEDFATYYCLQIYNMPITFGQGTKVEIKR
